How the values were obtained:
[1] = molecular target: biotinylated peptide X-…(biotin), X = C; experiment: phage ELISA, biotinylated peptide on neutravidin; phage 10×
[2] = molecular target: biotinylated peptide X-…(biotin), X = N; experiment: as above
[3] = molecular target: biotinylated peptide X-…(biotin), X = D; experiment: as above
[4] = molecular target: biotinylated peptide X-…(biotin), X = T; experiment: as above
[5] = molecular target: biotinylated peptide X-…(biotin), X = R; experiment: as above
[6] = molecular target: biotinylated peptide X-…(biotin), X = V; experiment: as above
[7] = molecular target: biotinylated peptide X-…(biotin), X = P; experiment: as above
[8] = molecular target: biotinylated peptide X-…(biotin), X = M; experiment: as above
[9] = molecular target: biotinylated peptide X-…(biotin), X = A; experiment: as above
[10] = molecular target: biotinylated peptide X-…(biotin), X = H; experiment: as above
[11] = molecular target: biotinylated peptide X-…(biotin), X = G; experiment: as above
[12] = molecular target: biotinylated peptide X-…(biotin), X = I; experiment: as above
[13] = molecular target: biotinylated peptide X-…(biotin), X = Q; experiment: as above
[14] = molecular target: biotinylated peptide X-…(biotin), X = E; experiment: as above
[15] = molecular target: biotinylated peptide X-…(biotin), X = K; experiment: as above
[16] = molecular target: biotinylated peptide X-…(biotin), X = S; experiment: as above
[17] = molecular target: biotinylated peptide X-…(biotin), X = C; experiment: phage ELISA, biotinylated peptide on neutravidin
[18] = molecular target: biotinylated peptide X-…(biotin), X = N; experiment: phage ELISA, biotinylated peptide on neutravidin
[19] = molecular target: biotinylated peptide X-…(biotin), X = D; experiment: phage ELISA, biotinylated peptide on neutravidin
[20] = molecular target: biotinylated peptide X-…(biotin), X = T; experiment: phage ELISA, biotinylated peptide on neutravidin
[21] = molecular target: biotinylated peptide X-…(biotin), X = R; experiment: phage ELISA, biotinylated peptide on neutravidin
[22] = molecular target: biotinylated peptide X-…(biotin), X = V; experiment: phage ELISA, biotinylated peptide on neutravidin
[23] = molecular target: biotinylated peptide X-…(biotin), X = P; experiment: phage ELISA, biotinylated peptide on neutravidin
[24] = molecular target: biotinylated peptide X-…(biotin), X = M; experiment: phage ELISA, biotinylated peptide on neutravidin
[25] = molecular target: biotinylated peptide X-…(biotin), X = A; experiment: phage ELISA, biotinylated peptide on neutravidin
[26] = molecular target: biotinylated peptide X-…(biotin), X = H; experiment: phage ELISA, biotinylated peptide on neutravidin
[27] = molecular target: biotinylated peptide X-…(biotin), X = G; experiment: phage ELISA, biotinylated peptide on neutravidin
[28] = molecular target: biotinylated peptide X-…(biotin), X = I; experiment: phage ELISA, biotinylated peptide on neutravidin
[29] = molecular target: biotinylated peptide X-…(biotin), X = Q; experiment: phage ELISA, biotinylated peptide on neutravidin
[30] = molecular target: biotinylated peptide X-…(biotin), X = E; experiment: phage ELISA, biotinylated peptide on neutravidin
[31] = molecular target: biotinylated peptide X-…(biotin), X = K; experiment: phage ELISA, biotinylated peptide on neutravidin
[32] = molecular target: biotinylated peptide X-…(biotin), X = S; experiment: phage ELISA, biotinylated peptide on neutravidin

B1: Phage displayed wild-type E. coli ClpS (truncated wildtype ClpS polypeptide, FLAG-tagged, fused to phage coat protein p3) (protein)
chain: KPPSMYKVILVNDDYTPMEFVIDVLQKFFSYDVERATQLMLAVHYQGKAICGVFTAEVAETKVAMVNKYARENEHPLLCTLEKA
phage ELISA signal (A450) [1]: -0.23
phage ELISA signal (A450) [2]: -0.05
phage ELISA signal (A450) [3]: -0.29
phage ELISA signal (A450) [4]: 0.01
phage ELISA signal (A450) [5]: 0.13
phage ELISA signal (A450) [6]: -0.09
phage ELISA signal (A450) [7]: -0.07
phage ELISA signal (A450) [8]: -0.11
phage ELISA signal (A450) [9]: -0.29
phage ELISA signal (A450) [10]: -0.03
phage ELISA signal (A450) [11]: -0.04
phage ELISA signal (A450) [12]: -0.16
phage ELISA signal (A450) [13]: -0.18
phage ELISA signal (A450) [14]: -0.26
phage ELISA signal (A450) [15]: 0.05
phage ELISA signal (A450) [16]: -0.01
phage ELISA signal (A450) [17]: -0.23
phage ELISA signal (A450) [18]: -0.05
phage ELISA signal (A450) [19]: -0.29
phage ELISA signal (A450) [20]: 0.01
phage ELISA signal (A450) [21]: 0.13
phage ELISA signal (A450) [22]: -0.09
phage ELISA signal (A450) [23]: -0.07
phage ELISA signal (A450) [24]: -0.11
phage ELISA signal (A450) [25]: -0.29
phage ELISA signal (A450) [26]: -0.03
phage ELISA signal (A450) [27]: -0.04
phage ELISA signal (A450) [28]: -0.016
phage ELISA signal (A450) [29]: -0.18
phage ELISA signal (A450) [30]: -0.26
phage ELISA signal (A450) [31]: 0.05
phage ELISA signal (A450) [32]: -0.01
